Assay results: patent US20260125472A1 (HEFEI TG IMMUNOPHARMA, published 2026)

B1: Cross317 (antibody, human IgG1, kappa, V domains shown)
VH: EVQLLESGGGLVQPGGSLKLSCAASGFTFNTYAMNWVRQAPGKGLEWVARIRSKYNNYATYYADSVKDRFTISRDDSKNTAYLQMNNLKTEDTAVYYCVRHGNFGNSYVSWFAGWGQGTLVTVSS
VL: ELVVTQEPSLTVSPGGTVTLTCRSSTGAVTTSNYANWVQQKPGQAPRGLIGGTNKRAPGTPARFSGSLLGGKAALTLSGVQPEDEAEYYCALWYSNLWVFGGGTKLTVLR
B2: Cross326×PDL1 (bispecific antibody, human IgG1, kappa, L234A L235A)
scFv: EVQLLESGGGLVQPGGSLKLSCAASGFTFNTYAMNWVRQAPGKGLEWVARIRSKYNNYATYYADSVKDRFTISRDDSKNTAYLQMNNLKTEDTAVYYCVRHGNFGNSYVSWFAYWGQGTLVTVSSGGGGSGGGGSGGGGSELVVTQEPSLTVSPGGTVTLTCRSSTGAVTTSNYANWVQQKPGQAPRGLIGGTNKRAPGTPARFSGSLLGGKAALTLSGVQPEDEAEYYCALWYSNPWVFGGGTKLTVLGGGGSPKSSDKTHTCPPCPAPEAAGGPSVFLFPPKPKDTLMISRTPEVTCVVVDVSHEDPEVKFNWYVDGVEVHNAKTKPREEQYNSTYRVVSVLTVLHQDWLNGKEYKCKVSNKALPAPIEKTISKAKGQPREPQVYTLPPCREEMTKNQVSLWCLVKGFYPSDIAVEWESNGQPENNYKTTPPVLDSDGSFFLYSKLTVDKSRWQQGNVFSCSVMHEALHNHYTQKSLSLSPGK
heavy: QVQLVQSGAEVKKPGASVKVSCKASGYSFTGYYMHWVRQAPGQGLEWIGRINPYNGATTYSQNFKDRATMTVDTSISTAYMELSRLRSDDTAVYYCVPTGMGYFLMDYWGQGTLVTVSSASTKGPSVFPLAPSSKSTSGGTAALGCLVKDYFPEPVTVSWNSGALTSGVHTFPAVLQSSGLYSLSSVVTVPSSSLGTQTYICNVNHKPSNTKVDKKVEPKSCDKTHTCPPCPAPEAAGGPSVFLFPPKPKDTLMISRTPEVTCVVVDVSHEDPEVKFNWYVDGVEVHNAKTKPREEQYNSTYRVVSVLTVLHQDWLNGKEYKCKVSNKALPAPIEKTISKAKGQPREPQVCTLPPSREEMTKNQVSLSCAVKGFYPSDIAVEWESNGQPENNYKTTPPVLDSDGSFFLVSKLTVDKSRWQQGNVFSCSVMHEALHNHYTQKSLSLSPGK
light: DIQLTQSPSFLSASVGDRVTITCKASQDVGSAVVWYQQKPGKAPKLLIYWASTRHTGVPSRFSGSGSGTEFTLTISSLQPEDFATYFCQQFTSYPTFGQGTKLEIKRTVAAPSVFIFPPSDEQLKSGTASVVCLLNNFYPREAKVQWKVDNALQSGNSQESVTEQDSKDSTYSLSSTLTLSKADYEKHKVYACEVTHQGLSSPVTKSFNRGEC

Experiments:
CD3 on CD8 T cells [1] = target: T1, CD3 on CD8 T cells (Homo sapiens (Human), UniProt P07766 23-207); assay: flow cytometry, CD8 T cells in PBMCs, MFI [panel B]
T1 construct: Native CD3 complex on CD8 T cells among PBMCs; also called T cells (PBMCs gated with anti-human CD8 antibody)
T1 sequence (P07766 23-207 limits assumed): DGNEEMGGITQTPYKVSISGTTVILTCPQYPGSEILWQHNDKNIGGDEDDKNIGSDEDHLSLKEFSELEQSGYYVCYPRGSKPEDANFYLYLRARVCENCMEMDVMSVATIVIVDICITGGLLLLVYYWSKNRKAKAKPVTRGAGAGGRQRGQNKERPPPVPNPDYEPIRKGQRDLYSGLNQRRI
Procedure: PBMCs were diluted with PBS to 2×10⁶/mL and added to a 1.5 ml EP tube at a volume of 100 μL/tube, 10 μL/tube of goat serum was added thereto and incubated at 4° C. for 30 min for blocking. […] 1 mL of PBS was added to the EP tube, followed by centrifugation at 3500 rpm for 5 min at 4° C. The supernatant was discarded, and the cells were washed again with PBS. After centrifugation, the supernatant was discarded, and the cells were resuspended with 100 μl/tube PBS. 1 μl/tube Alexa-647-labeled goat anti-human secondary antibody (purchased from Jackson lab) and 0.5 μl/tube PerCP-Cy5.5-labeled anti-human CD8 antibody were added and incubated at 4° C. in the dark for 30 min. The cells were washed twice with PBS, and the supernatant was discarded after centrifugation. The cells were resuspended with […] of PBS and assayed using the flow cytometry.

CD3E&D protein [2] = target: T2, CD3E&D protein (UniProt P04234 22-105); assay: SPR (Biacore 8K), antibody on CM5 chip, CD3 E&D antigen as analyte; set-up: Fold change: reference not given here
T2 construct: Purchased from Acro; also called CD3 E&D antigens; CD3E&D antigen protein
T2 sequence (chain, as listed by the source limits assumed, chain 1 of 2): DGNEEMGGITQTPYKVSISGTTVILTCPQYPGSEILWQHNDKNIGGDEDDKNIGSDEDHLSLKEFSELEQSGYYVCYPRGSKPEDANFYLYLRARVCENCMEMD
T2 sequence (P04234 22-105 limits assumed, chain 2 of 2): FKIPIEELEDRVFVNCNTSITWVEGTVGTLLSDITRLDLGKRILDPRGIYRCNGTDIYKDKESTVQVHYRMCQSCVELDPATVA
Procedure: In a Biacore 8K (Cytiva) system, the antibody was diluted to 10 μg/mL in HBS-EP running buffer and coupled to a CM5 chip (Cytiva) at a flow rate of 10 μL/min.

CD3E&D protein [3] = target: T2, CD3E&D protein; assay: ELISA, coated CD3E&D protein, OD450 [panel B]
Procedure: In this example, the binding properties of the parental antibody Cross3 and the CD3 affinity-reduced antibody (the production method and the amino acid sequences of the heavy and light chains were shown in Example 1) were detected by ELISA. The CD3E&D protein was coated onto a 96-well plate by the inventors, and the strength of the signal after the addition of the antibody was used to determine the binding properties of the antibody and CD3E&D.
CD3E&D protein (purchased from Acro) was diluted to 2 μg/ml with PBS buffer, added to a 96-well plate at a volume of 100 μL/well, and placed at 4° C. overnight. The PBS buffer in the 96-well plate was aspirated, and the plate was washed 6 times with PBST (pH 7.2 PBS containing 0.1% Tween 20) buffer. Then, 200 μL/well PBS/10% BSA was added and incubated at 37° C. for 2 h for blocking. The blocking solution was removed, and the plate was washed six times with PBST. Then, the to-be-tested antibodies serially diluted with PBST/0.05% BSA, Cross3, Cross303, Cross307, Cross308, Cross309, Cross310, Cross311, Cross312, Cross313, Cross314, Cross316, Cross317, Cross318, Cross323, Cross325, Cross326, and control IgG1 (purchased from Bio-Tech) were added at 100 μL/well, and incubated at 37° C. for 1 h. The reaction system was removed, and the plate was washed 6 times with PBST. Then, the cells were incubated at 37° C. for 1 h with HRP (horseradish peroxidase)-labeled anti-human secondary antibody (Fab specific) (purchased from Sigma) serially diluted with PBST/0.05% BSA at 100 μL/well. The plate was washed six times with PBST, TMB (tetramethylbenzidine) was added at 80 μL/well and incubated at room temperature for 3 min. 4 M sulfuric acid was added at 80 μL/well to terminate the reaction. The absorbance was read at 450 nm using a microplate reader.

CD3 on CD8 T cells [4] = target: T1, CD3 on CD8 T cells; assay: flow cytometry, CD8 T cells in PBMCs, binding ratio % [panel A]
Procedure, shortened: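 PBMCs at 2×10⁶/mL blocked with goat serum for 30 min at 4° C, then after washing stained for 30 min at 4° C in the dark with Alexa-647 goat anti-human secondary plus PerCP-Cy5.5 anti-CD8. Analysed by flow cytometry on CD8 T cells as binding ratio % and MFI.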

[5] = target: T3, PDL1 on A-375 melanoma cells, HCT-15 colorectal cancer cells and A549 lung cancer cells (UniProt Q9NZQ7 19-290, limits assumed); assay: flow cytometry, HCT-15 cells, binding ratio % [panel A]
T3 construct: whole, on cells
T3 sequence (Q9NZQ7 19-290 limits assumed): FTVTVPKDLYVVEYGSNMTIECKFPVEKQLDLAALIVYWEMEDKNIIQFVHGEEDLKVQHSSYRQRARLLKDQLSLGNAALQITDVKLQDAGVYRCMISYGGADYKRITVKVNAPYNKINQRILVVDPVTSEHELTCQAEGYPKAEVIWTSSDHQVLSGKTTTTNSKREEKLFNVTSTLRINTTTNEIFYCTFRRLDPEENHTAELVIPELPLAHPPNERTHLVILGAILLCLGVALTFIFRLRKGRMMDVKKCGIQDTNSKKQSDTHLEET
Procedure: (2) The tumor cells were diluted to 2×10⁶/ml with PBS and added to a 1.5 ml EP tube at a volume of 100 μl/tube, and goat serum was added thereto at 10 μl/tube. The cells were blocked at 4° C. for 30 min. The serially diluted bispecific antibodies, Cross3×Trop2, Cross303×Trop2, Cross307×Trop2, Cross308×Trop2, Cross309×Trop2, Cross310×Trop2, Cross311×Trop2, Cross312×Trop2, Cross313×Trop2, Cross314×Trop2, Cross316×Trop2, Cross317×Trop2, Cross318×Trop2, Cross323×Trop2, Cross325×Trop2, Cross326×Trop2, and Cross3×PDL1, Cross303×PDL1, Cross307×PDL1, Cross308×PDL1, Cross309×PDL1, Cross310×PDL1, Cross311×PDL1, Cross312×PDL1, Cross313×PDL1, Cross314×PDL1, Cross316×PDL1, Cross317×PDL1, Cross318×PDL1, Cross323×PDL1, Cross325×PDL1, Cross326×PDL1, and control hIgG1LALA (purchased from Bio-Tech) were added and incubated at 4° C. for 30 min. 1 ml of PBS was added to the EP tube, followed by centrifugation at 3500 rpm for 5 min at 4° C. The supernatant was discarded, and the cells were washed again with PBS. After centrifugation, the supernatant was completely discarded, and the cells were resuspended with PBS at 100 μl/tube. Alexa-647-labeled goat anti-human IgG secondary antibody (purchased from Jackson lab) was added at 1 μl/tube and incubated at 4° C. in the dark for 30 min. The cells were washed twice with PBS, and the supernatant was completely discarded after centrifugation. […]

[6] = target: T3, PDL1 on A-375 melanoma cells, HCT-15 …; assay: flow cytometry, A-375 cells, binding ratio % [panel A]
Procedure: (2) The tumor cells were diluted to 2×10⁶/ml with PBS and added to a 1.5 ml EP tube at a volume of 100 μl/tube, and goat serum was added thereto at 10 μl/tube. The cells were blocked at 4° C. for 30 min. The serially diluted bispecific antibodies, Cross3×Trop2, Cross303×Trop2, Cross307×Trop2, Cross308×Trop2, Cross309×Trop2, Cross310×Trop2, Cross311×Trop2, Cross312×Trop2, Cross313×Trop2, Cross314×Trop2, Cross316×Trop2, Cross317×Trop2, Cross318×Trop2, Cross323×Trop2, Cross325×Trop2, Cross326×Trop2, and Cross3×PDL1, Cross303×PDL1, Cross307×PDL1, Cross308×PDL1, Cross309×PDL1, Cross310×PDL1, Cross311×PDL1, Cross312×PDL1, Cross313×PDL1, Cross314×PDL1, Cross316×PDL1, Cross317×PDL1, Cross318×PDL1, Cross323×PDL1, Cross325×PDL1, Cross326×PDL1, and control hIgG1LALA (purchased from Bio-Tech) were added and incubated at 4° C. for 30 min. 1 ml of PBS was added to the EP tube, followed by centrifugation at 3500 rpm for 5 min at 4° C. The supernatant was discarded, and the cells were washed again with PBS. After centrifugation, the supernatant was completely discarded, and the cells were resuspended with PBS at 100 μl/tube. Alexa-647-labeled goat anti-human IgG secondary antibody (purchased from Jackson lab) was added at 1 μl/tube and incubated at 4° C. in the dark for 30 min. The cells were washed twice with PBS, and the supernatant was completely discarded after centrifugation. The cells were resuspended with PBS at 200 μl/tube and assay was performed using the flow cytometry.

PDL1 protein = target: T4, PDL1 protein (UniProt Q9NZQ7 19-238); assay: ELISA, coated PDL1 protein, OD450 [panel B]
T4 construct: Bought recombinant protein
T4 sequence (Q9NZQ7 19-238 limits assumed): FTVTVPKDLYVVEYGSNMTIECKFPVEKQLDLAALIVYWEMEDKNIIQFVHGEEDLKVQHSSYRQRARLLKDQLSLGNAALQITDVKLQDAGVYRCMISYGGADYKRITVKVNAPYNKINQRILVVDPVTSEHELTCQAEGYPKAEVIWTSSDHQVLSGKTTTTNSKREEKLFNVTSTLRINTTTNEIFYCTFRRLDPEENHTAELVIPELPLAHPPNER
Procedure: (3) PDL1 protein (purchased from Acro) was diluted to 2 μg/ml with PBS buffer, added to a 96-well plate at a volume of 100 μL/well, and placed at 4° C. overnight. The PBS buffer in the 96-well plate was aspirated, and the plate was washed 6 times with PBST (pH 7.2 PBS containing 0.10% Tween 20) buffer. Then, PBS/10% BSA was added at 200 μL/well and incubated at 37° C. for 2 h for blocking. The blocking solution was removed, and the plate was washed six times with PBST. Then, the to-be-tested bispecific antibodies serially diluted with PBST/0.05% BSA, Cross3×PDL1, Cross303×PDL1, Cross307×PDL1, Cross308×PDL1, Cross309×PDL1, Cross310×PDL1, Cross311×PDL1, Cross312×PDL1, Cross313×PDL1, Cross314×PDL1, Cross316×PDL1, Cross317×PDL1, Cross318×PDL1, Cross323×PDL1, Cross325×PDL1, Cross326×PDL1, and control IgG1LALA (purchased from Bio-Tech) were added at 100 μL/well, and incubated at 37° C. for 1 h. The reaction system was removed, and the plate was washed 6 times with PBST. Then, the cells were incubated at 37° C. for 1 h with HRP (horseradish peroxidase)-labeled anti-human secondary antibody (Fab specific) (purchased from Sigma) serially diluted with PBST/0.05% BSA at 100 μL/well. After the plate was washed six times with PBST, TMB (tetramethylbenzidine) was added at 80 μL/well and incubated at room temperature for 3 min. 4 M sulfuric acid was added at 80 μL/well to terminate the reaction. The absorbance was read at 450 nm using a microplate reader.

Binder | EC50 (read off the curve) (CD3 on CD8 T cells [1]) [µg/mL] | Fold change (CD3E&D protein [2]) | Kd (CD3E&D protein [2]) [nM] | koff (CD3E&D protein [2]) [s⁻¹] | kon (CD3E&D protein [2]) [M⁻¹ s⁻¹] | EC50 (read off the curve) (CD3E&D protein [3]) [µg/mL] | EC50 (read off the curve) (CD3 on CD8 T cells [4]) [µg/mL] | EC50 (read off the curve) [5] [µg/mL] | EC50 (read off the curve) [6] [µg/mL] | EC50 (read off the curve) (PDL1 protein) [µg/mL]
B1 | ~2 | 16.2 | 2.68 | 0.00761 | 2.84e+06 | ~0.03 | ~0.5 | – | – | –
B2 | – | – | – | – | – | – | – | ~0.07 | ~0.07 | ~0.1
